Measurements published in the supplement of paper PMC9170038.

Test system: MS2 coat protein
Assay: apparent KD of MS2 coat protein; designed switch direction (-1 OFF switch, 1 ON switch): -1; higher = weaker reporter binding
Summary of the method: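 Normalised cluster fluorescence was curve-fitted, and each design's median over clusters is its apparent KD. Before this, SNAP-549-labelled MS2 coat protein was titrated from 0.7 or 1.5 nM, doubling to 3 µM, over RNA switches transcribed on Illumina chips by stalled E. coli RNA polymerase. Titrations had no input, 200 uM small-molecule ligand, or an oligonucleotide input, and steps lasted 0.8–1.5 h (lowest) to 10–20 min (highest).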

[1] = Eterna round: R95, input ligand: FMN 200 uM
[2] = Eterna round: R95, input ligand: microRNA oligo, concentration not stated
[3] = Eterna round: R95, input ligand: none
[4] = input ligand: microRNA oligo, concentration not stated

Sequence	apparent KD of MS2 coat protein [1] [µM]	apparent KD of MS2 coat protein [2] [µM]	apparent KD of MS2 coat protein [3] [µM]	apparent KD of MS2 coat protein (input ligand: FMN 200 uM) [µM]	apparent KD of MS2 coat protein (input ligand: none) [µM]	apparent KD of MS2 coat protein [4] [µM]
UGGUGGAAGCAGGAUAUGCUUGUAUUAUUGAUAGCAGAAGGGCUAACAUGAGGAUCACCCAUGUAAGAGGUGUA [JR_E6_Sub057] (puzzle: Exclusion 6)	0.19	0.203	0.238			
UGGUGGAAGCAGGAUAUGCUUGUAUUAUUGAUUGCAGAAGGGCUAACAUGAGGAUCACCCAUGUAAGAGGUGUU [JR_E6_Sub056] (puzzle: Exclusion 6)	0.303	0.289	0.327			
UGGUGUGCGAAGGAUAUGUAGGCUAUCAUGUCAAUAGAAGGUUGCACAUGAGGAUCACCCAUGUAAGCCACUUA [Eternabot (L1) Solution 17] (Eterna round: R97, puzzle: Exclusion 6)				0.0692	0.083	
UGUACGCGAGGAUAUACAUGAGGAUCACCCAUGUCAUAUGAAAUGUAAUGAGUAGCGGGUAGAAGGCGCUUUUG [Eternabot (L2) Solution 26] (Eterna round: R97, puzzle: Exclusion 3)				0.0218	0.0313	
UGUAGUUCAGGAUAUGAUGUUAAAUACAUGAGGAUCACCCAUGUAGAUCCUGAAUUUACAUCAGAAGGGAAUAUUU [JL-ex5-4.56 Brourd mod] (Eterna round: R97, puzzle: Exclusion 5)				0.0228	0.0171	
UGUCAGAUGGUAGGAUAUCCAUAUCGAGUGACCCUUUCAUAACAUGAGGAUCACCCAUGUUGGUGGGAGAAGGGCCGUAUGGUG [salish99_ExNG02_R04_026] (Eterna round: R96, puzzle: Exclusion NG 2)				0.0132	0.0155	0.0127
UGUCAGAUGGUAGGAUAUCCAUAUCGAGUGACCCUUUCUUAACAUGAGGAUCACCCAUGUCGGUGGGAGAAGGGCCGUAUGGUG [salish99_ExNG02_R04_032] (Eterna round: R96, puzzle: Exclusion NG 2)				0.0314	0.0299	0.024
UGUCAGUCAGGAUAUGCAUACGUAGACAUGAGGAUCACCCAUGUGACGUGGGACUGGUGUGUAGAAGGGACGAACA [EX5 #79] (Eterna round: R97, puzzle: Exclusion 5)				0.0298	0.0286	
UGUGCGUAUGUGAGGAUAUGCUGGUCCUUGGAUCAGCAGAAGGCACAUGAGGAUCACCCAUGUGGUGUCGUACC [salish99_Bmod_Ex4_002] (puzzle: Brourd's mod of Exclusion 4)		0.243				
UGUGCGUAUGUGAGGAUAUGCUGGUCCUUGGAUCGGCAGAAGGCACAUGAGGAUCACCCAUGUGGUGUCGUACC [salish99_Bmod_ex4_075] (puzzle: Brourd's mod of Exclusion 4)		0.154				
UGUGCGUAUGUGAGGAUAUGCUGGUCCUUGGAUCGGCAGAAGGCACAUGAGGAUCACCCAUGUGGUGUCGUACU [salish99_Bmod_ex4_083] (puzzle: Brourd's mod of Exclusion 4)		0.235				
UGUGCGUAUGUGAGGAUAUGCUGGUCCUUGGAUCGGCAGAAGGCACAUGAGGAUCACCCAUGUGGUGUCGUUCG [salish99_Bmod_ex4_097] (puzzle: Brourd's mod of Exclusion 4)		0.206				
UGUGCUUCAGGAUAUACGUGACGUCCGUGAGGACGAAGGUUACAUGAGGAUCACCCAUGUAGAAGGGAAGUACU [Mat - Exclusion 2 - JL Mod - D30] (Eterna round: R97, puzzle: Exclusion 2)				0.11	0.0202	
UGUUGUCGCGCAGGAUAUGAGGAUCACCCAUAUAGAGGAUAUGAAAAGAAGGCUCUGAGGAUCACCCAGAAGGGCGGGACAACU [pwkr exNG2 2xF5 2xFMN.23] (Eterna round: R96, puzzle: Exclusion NG 2)				1.39	0.222	0.141
UGUUGUUCAGGAUAUGGUGUGUUUUACAUGAGGAUCACCCAUGUGGGUCCUGGUUUGGCGUCAGAAGGGAAUGUUG [salish99_ex5_r4_117] (Eterna round: R97, puzzle: Exclusion 5)				0.788	1.04	
UUAAAGGCAGGAUAUACAUUUUUUUUAUUAUCCUCAUUAUUACAUGAGGAUCACCCAUGUAGAAGGGCCAAAUU [Mat - Exclusion 2 - Mod of Hog - D85] (Eterna round: R96, puzzle: Exclusion 2)				0.312	0.357	0.187
UUAAAGGCAGGAUAUACAUUUUUUUUAUUAUCCUCAUUAUUACAUGAGGAUCACCCAUGUAGAAGGGCCAAAUU [Mat - Exclusion 2 - Mod of Hog - D85] (puzzle: Exclusion 2)		0.0576				
UUAAAUCAUGUAGGAUAUGCGUGGCGAAGCUAUGCAGAAGGACAUGAGGAUCACCCAUGUGCUUGCGUCUGCGUACAGAUGCUA [JL ENG1 1.12] (Eterna round: R96, puzzle: Exclusion NG 1)				0.112	0.0637	0.0528
UUAAAUCAUGUAGGAUAUGCGUGGCGAAGCUAUGCAGAAGGACAUGAGGAUCACCCAUGUUCUAGCGUCCGCGUACGGAUGCAA [JL Eng1 1.21 mod 10] (Eterna round: R96, puzzle: Exclusion NG 1)				0.144	0.0186	0.012
UUAAUACAUGAGGAUCACCCAUGUCAGGAUAUUACGAUUACUCCGUGCCCAUUGAGAGUGAGAAGGGAUAUGGA [Eternabot (L2) Solution 58] (Eterna round: R97, puzzle: Exclusion 1)				0.0197	0.0181	
UUAAUACAUGUAGGAUAUGCGUGGCGAAGCUAUGCAGAAGGACAUGAGGAUCACCCAUGUUCCAGCGUCCGCGUACGGAUGCAA [JL Eng1 1.21 mod 12] (Eterna round: R96, puzzle: Exclusion NG 1)				0.0142	0.0142	0.0124
UUAAUUAAUGUCAGGAUAUCUAGAGCUUCGGCUCUAGAGAAGGGACAUGAGGAUCACCCAUGUCACUCUUAAUU [BmEx4/3-C1] (Eterna round: R97, puzzle: Brourd's mod of Exclusion 4)				0.0211	0.0151	
UUAAUUAAUUAUAUAAGAUCACAUGAGGAUCACCCAUGUAUAUAGGAUAUCAGCUCGUUUAGAGCUGAGAAGGAUAUACAAUAU [ExNG3/3-B2] (Eterna round: R96, puzzle: Exclusion NG 3)				0.0418	0.209	0.497
UUAAUUAAUUGACUGCAAGAUCAACAUGAGGAUCACCCAUGUGAGGAUAUCAGCUCGAUUAGAGCUGAGAAGGCACAAGCAGUC [ExNG3/16-A1] (Eterna round: R96, puzzle: Exclusion NG 3)				0.0804	0.0175	0.015
UUAAUUACGGUGCUUUAACCUCACAUGAGGAUCACCCAUGUGCAGGAUAUCAGCUCGUGUAGAGCUGAGAAGGGCACUGCACCG [ExNG3/11-A3] (Eterna round: R96, puzzle: Exclusion NG 3)				0.014	0.0121	0.00805
